Data published in PMC3745430, “Novel Multiplexed Assay for Identifying SH2 Domain Antagonists of STAT Family Proteins” (PLoS ONE, 2013).
Square brackets hold non-standard residues; d marks the D form. Primed or numbered codes have the meaning given here. Ends that are not written are not given here. pY = N[C@@H](Cc1ccc(OP(=O)(O)O)cc1)C(=O)O; FITC′ = 5-carboxyfluorescein label; DIG = digoxygenin label; C2 = two carbon spacer; C6 = C6 spacer

T1: STAT5b(136–703) (Homo sapiens, UniProt P51692)
T1 construct: 136 to 703 of human STAT5b; 6×His-tag (N); made in house; host or cells: E. coli BL-21 Star (DE3) pLysS co-transformed with pBirAcm
T1 sequence (P51692 136-703): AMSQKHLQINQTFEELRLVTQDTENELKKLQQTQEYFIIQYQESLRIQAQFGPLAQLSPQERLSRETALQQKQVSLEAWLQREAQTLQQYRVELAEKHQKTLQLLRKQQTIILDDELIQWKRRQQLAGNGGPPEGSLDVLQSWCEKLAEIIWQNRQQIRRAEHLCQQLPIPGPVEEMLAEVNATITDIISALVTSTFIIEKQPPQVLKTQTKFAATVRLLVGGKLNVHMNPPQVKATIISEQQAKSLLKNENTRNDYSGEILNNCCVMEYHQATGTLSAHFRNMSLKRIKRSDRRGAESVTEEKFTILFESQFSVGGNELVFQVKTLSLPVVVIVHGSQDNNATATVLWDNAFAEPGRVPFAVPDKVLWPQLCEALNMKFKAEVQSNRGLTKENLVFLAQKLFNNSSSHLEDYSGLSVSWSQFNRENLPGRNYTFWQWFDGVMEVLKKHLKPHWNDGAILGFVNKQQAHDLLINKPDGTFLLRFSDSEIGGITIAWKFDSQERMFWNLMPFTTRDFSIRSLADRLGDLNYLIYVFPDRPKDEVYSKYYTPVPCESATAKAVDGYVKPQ

T2: STAT5b(136–703) (human, UniProt P51692 136-703, biotin on the Avi-tag)
T2 construct: also called biotinylated STAT5b protein; truncated form of STAT5b; source: E. coli BL-21 Star (DE3) pLysS with pBirAcm (biotinylated in the cells), purified (HisTrap HP, dialysis); not shown: Avi-tag, N-terminal, kept
T2 sequence (looked up): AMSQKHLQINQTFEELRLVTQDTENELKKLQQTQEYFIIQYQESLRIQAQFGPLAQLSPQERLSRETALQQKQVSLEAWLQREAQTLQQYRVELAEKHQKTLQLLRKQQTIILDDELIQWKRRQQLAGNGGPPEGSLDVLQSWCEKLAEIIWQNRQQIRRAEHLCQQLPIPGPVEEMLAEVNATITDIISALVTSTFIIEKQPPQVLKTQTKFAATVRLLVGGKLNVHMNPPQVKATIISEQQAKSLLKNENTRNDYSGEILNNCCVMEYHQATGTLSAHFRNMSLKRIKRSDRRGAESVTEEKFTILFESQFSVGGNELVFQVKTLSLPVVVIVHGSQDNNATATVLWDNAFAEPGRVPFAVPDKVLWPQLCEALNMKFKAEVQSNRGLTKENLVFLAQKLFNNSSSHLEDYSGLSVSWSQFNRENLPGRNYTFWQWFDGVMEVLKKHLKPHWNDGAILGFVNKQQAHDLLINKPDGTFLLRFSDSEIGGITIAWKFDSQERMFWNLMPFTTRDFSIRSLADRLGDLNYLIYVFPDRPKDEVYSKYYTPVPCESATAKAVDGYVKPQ


Columns and labels:
STAT5b(136–703) [1] = molecular target: T1, STAT5b(136–703); assay: Multiplexed Alpha assay, STAT5b-SH2 binding (AlphaScreen); details: multiplexed assay; read-out: IC50 for STAT5b-SH2 binding
Experimental: (§1) Both AlphaLISA and AlphaScreen are bead-based nonradioactive binding assay systems for detecting biomolecular interactions in a microplate format. The binding of the biological partners brings the donor and acceptor beads into close proximity, and AlphaLISA produces a specific signal around 615 nm and AlphaScreen emits a broad signal between 520 and 620 nm. The assays were performed in a final reaction volume of 25 µL of the assay buffer, which contained 10 mM HEPES-NaOH (pH 7.4), 50 mM NaCl, 1 mM EDTA (pH 8.0), 0.1% (w/v) NP-40, and 10 ng/µL (w/v) BSA in a 96-well microplate at 25°C. The labeled phosphotyrosyl (pTyr, pY) peptide probes were DIG-GpYLPQTV and FITC-GpYLVLDKW for STAT3 and STAT5b, respectively. In the single assay for STAT3 binding, 100 nM STAT3(136–705) protein was incubated with a test compound dissolved in DMSO for 30 min, and 1.0 nM DIG-GpYLPQTV was added and the mixture was incubated for 90 min. Streptavidin-coated donor beads (0.25 µg/well) and anti-DIG AlphaLISA acceptor beads (0.25 µg/well) were added and incubated for 90 min before the signals were measured with EnVison Xcite (PerkinElmer Life Sciences). In the single assay for STAT5b binding, 20 nM STAT5b(136–703) was incubated with a test compound for 30 min, and 1.0 nM FITC-GpYLVLDKW was added and incubated for 90 min. Streptavidin-coated donor beads (0.25 µg/well) and anti-FITC AlphaScreen acceptor beads (0.25 µg/well) were added and incubated for 90 min before the signals were measured with EnVison Xcite. In the multiplexed assay, 100 nM STAT3(136–705) and 20 nM STAT5b(136–703) were incubated with a test compound for 30 min, and 1.0 nM DIG-GpYLPQTV and 1.0 nM FITC-GpYLVLDKW were added and incubated for 90 min. Streptavidin-coated donor beads (0.50 µg/well), anti-DIG AlphaLISA (0.25 µg/well), and anti-FITC AlphaScreen acceptor beads (0.25 µg/well) were added and incubated for 90 min before the signals were measured with EnVison Xcite. AlphaLISA and AlphaScreen signals for measuring STAT3- and STAT5b-SH2 binding, respectively, can be separately measured by using a dysprosium 572 nm and a europium 615 nm narrow bandwidth filter. In inhibitory assays, these signals for the bound state and the free state were represented as 0% and 100% inhibition, respectively. The bound state was measured by incubating the labeled peptide and the protein without test compounds. The free state was measured by incubating the same mixture with an additional 10 µM non-labeled peptide contained phosphorylated tyrosine, which competitively binds to its corresponding protein. The IC50 value was calculated by Graph pad prism 4.0. The mean and the standard error (SEM) of IC50 values were determined from three independent experiments. The Z’ value was calculated using the equation Z’ = 1–(3×SD_bound +3×SD_free)/(Signal_bound – Signal_free). STAT1 and Grb2 binding assays were performed as described in previous report. In the assays for selectivity of Compound 1, 100 pM biotinylated DIG or 100 pM biotinylated FITC was incubated with 10 µM or 30 µM Compound 1 for 30 min. Streptavidin-coated donor beads (0.25 µg/well) and anti-DIG AlphaLISA acceptor beads (0.25 µg/well) or anti-FITC AlphaScreen acceptor beads (0.25 µg/well) were added and incubated for 90 min before the signals were measured with EnVison Xcite.

STAT3(136–705) [2] = molecular target: T3, STAT3(136–705) (Homo sapiens, UniProt P40763); assay: Multiplexed Alpha assay, STAT3-SH2 binding (AlphaLISA); details: multiplexed assay; read-out: IC50 for STAT3-SH2 binding
T3 construct: amino acids 136 to 705 of human STAT3 and 136 to 703 of human STAT5b; 6×His-tag (N); made in house; host or cells: E. coli BL-21 Star (DE3) pLysS co-transformed with pBirAcm
T3 sequence (P40763 136-705): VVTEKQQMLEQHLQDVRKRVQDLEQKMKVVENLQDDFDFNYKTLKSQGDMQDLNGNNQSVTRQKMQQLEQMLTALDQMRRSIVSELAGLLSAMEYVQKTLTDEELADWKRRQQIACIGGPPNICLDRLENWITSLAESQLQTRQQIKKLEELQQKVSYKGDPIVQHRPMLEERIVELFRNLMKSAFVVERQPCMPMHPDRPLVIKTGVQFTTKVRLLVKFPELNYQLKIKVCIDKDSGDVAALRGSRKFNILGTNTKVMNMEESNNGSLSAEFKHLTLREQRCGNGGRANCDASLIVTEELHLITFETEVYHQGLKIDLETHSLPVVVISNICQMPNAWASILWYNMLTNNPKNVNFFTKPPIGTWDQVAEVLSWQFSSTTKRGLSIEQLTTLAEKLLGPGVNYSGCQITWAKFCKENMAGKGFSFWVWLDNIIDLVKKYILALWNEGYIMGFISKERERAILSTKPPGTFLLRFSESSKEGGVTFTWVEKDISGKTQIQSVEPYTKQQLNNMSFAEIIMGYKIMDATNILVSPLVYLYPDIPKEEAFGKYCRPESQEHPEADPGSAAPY
Experimental: as §1

STAT5b(136–703) [3] = molecular target: T1, STAT5b(136–703); assay: Single STAT5b-SH2 binding assay (AlphaScreen); details: single assay, non-labeled peptides (Figure 4B)
Experimental: as §1

STAT3(136–705) [4] = molecular target: T3, STAT3(136–705); assay: Single STAT3-SH2 binding assay (AlphaLISA); details: single assay, non-labeled peptides (Figure 4A)
Experimental: as §1

STAT3(136–705) [5] = molecular target: T3, STAT3(136–705); assay: AlphaScreen competition of FITC-C6-GpYLPQTV binding to STAT3(136–705); details: AlphaScreen system, competitor (Figure S2)
Experimental: To acquire the signal window, the length of the spacer between DIG and the peptide sequence in the DIG-labeled GpYLPQTV peptide was investigated by using the single STAT3-SH2 binding assay. A six carbon (C6) and a two carbon (C2) peptide spacer were used (Figure 3A). […] The DIG-C6-GpYLPQTV peptide was chosen as the STAT3 ligand. When 100 nM STAT3(136–705) was used as the biotinylated protein, 2.0 nM DIG-C6-GpYLPQTV produced the maximum signal for the STAT3-SH2 binding (Figure 3B, Figure S1). For the STAT5b-SH2 binding, FITC-C6-GpYLVLDKW was used as the STAT5b ligand. The signals increased in a peptide dose-dependent manner (Figure S1). When 20 nM STAT5b(136–703) was used, 2.5 nM FITC-C6-GpYLVLDKW produced the maximum signal for STAT5b-SH2 binding. […] Therefore, although DIG-C2-GpYLPQTV could bind to STAT3, it was not suitable for the Alpha system. The anti-DIG antibody may access the DIG-C6-GpYLPQTV peptide-STAT3 protein complex in preference to the DIG-C2-GpYLPQTV peptide complex because of the length of the spacer.
Supplementary file pone.0071646.s002.tif: Figure S2 Inhibition of STAT3-SH2 binding by DIG-C2-GpYLPQTV. DIG-C2-GpYLPQTV was used as a competitor in the binding assay for STAT3(136–705) protein and FITC-C6-GpYLPQTV peptide in the single assay. Each point is the mean from three replicates, and the error bars represent the standard deviation from the mean. […]

STAT5b(136–703) [6] = molecular target: T2, STAT5b(136–703); assay: AlphaScreen or HTRF; AlphaScreen, single STAT5b-SH2 assay, competition: 20 nM biotinylated STAT5b(136-703) incubated with non-labelled peptide, then 1.0 nM FITC-GpYLVLDKW for 90 min; streptavidin donor and anti-FITC acceptor beads; 10 mM HEPES-NaOH pH 7.4, 50 mM NaCl, 1 mM EDTA, 0.1% NP-40, BSA, 25°C; details: both partners purified

Row | Molecule | Inhibitory effect on STAT5b-SH2 binding (STAT5b(136–703) [3]) | Inhibitory effect on STAT3-SH2 binding (STAT3(136–705) [4]) | other results
1 | O=[N+]([O-])c1ccc2c(c1)S(=O)(=O)C=C2 [Stattic, reference compound] |  |  | IC50 (STAT5b(136–703) [1]): 175 µM; IC50 (STAT3(136–705) [2]): 50 µM
2 | Ac-GYLPQTV-NH2 | had no effect | had no effect | 
3 | Ac-GYLVLDKW-NH2 | had no effect | had no effect | 
4 | Ac-GpYLPQTV-NH2 (Ac-G[pY]LPQTV-NH2) [non-labeled phosphotyrosine peptide for STAT3] | had no effect | inhibited | 
5 | Ac-GpYLVLDKW-NH2 | inhibited | had no effect | 
6 | DIG-C2-GpYLPQTV ({DIG-C2}-G[pY]LPQTV) [digoxygenin-labeled GpYLPQTV peptide with two carbon spacer] |  |  | Inhibition of binding between FITC-C6-GpYLPQTV and STAT3(136–705) (STAT3(136–705) [5]): inhibited
7 | {FITC′-C6}-G[pY]LVLDKW (the leading G is not the receptor's residue at that place; also called FITC-GpYLVLDKW; FITC-labeled GpYLVLDKW peptide; source: synthetic peptide (synthesized by Nippi Biomatrix Laboratory)) [FITC-C6-GpYLVLDKW] |  |  | binding result (STAT5b(136–703) [6]): binds
8 | Ac-G[pY]LVLDKW-NH2 (SMILES CC(=O)NCC(=O)N[C@@H](Cc1ccc(OP(=O)(O)O)cc1)C(=O)N[C@@H](CC(C)C)C(=O)N[C@H](C(=O)N[C@@H](CC(C)C)C(=O)N[C@@H](CC(=O)O)C(=O)N[C@@H](CCCCN)C(=O)N[C@@H](Cc1c[nH]c2ccccc12)C(N)=O)C(C)C, the leading G is not the receptor's; also called non-labeled peptide for STAT5b) [Ac-GpYLVLDKW-NH2] |  |  | binding result (STAT5b(136–703) [6]): binds
